From patent publication US11666658B2, “Rifamycin analogs and antibody-drug conjugates thereof” (Regeneron Pharmaceuticals, Inc., priority 2018, dated 2023) come the findings set out here.

Assay [1] deals with T1, MSR1 on differentiated THP-1 cells (Homo sapiens, UniProt P21757).
T1 construct: endogenously expressed human MSR1; endogenous in cells; host or cells: THP-1 cells treated with 200 nM PMA
T1 sequence (P21757 1-451): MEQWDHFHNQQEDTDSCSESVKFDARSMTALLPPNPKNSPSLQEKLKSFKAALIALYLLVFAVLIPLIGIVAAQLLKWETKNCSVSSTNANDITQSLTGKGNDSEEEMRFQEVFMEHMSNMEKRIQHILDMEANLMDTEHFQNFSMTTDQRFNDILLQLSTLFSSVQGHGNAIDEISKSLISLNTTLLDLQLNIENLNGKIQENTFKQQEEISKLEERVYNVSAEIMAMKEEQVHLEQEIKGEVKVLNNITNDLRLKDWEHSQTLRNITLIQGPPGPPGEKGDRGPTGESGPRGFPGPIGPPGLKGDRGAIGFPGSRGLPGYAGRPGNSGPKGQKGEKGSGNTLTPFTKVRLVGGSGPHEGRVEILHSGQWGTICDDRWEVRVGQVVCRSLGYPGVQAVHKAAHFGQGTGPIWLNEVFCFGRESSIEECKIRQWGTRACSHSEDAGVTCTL
As to the kind of experiment: Binding and internalization of cell-surface expressed MSR1 (confocal imaging). Format: cell-based. The conditions noted are these: 10 μg/mL antibody. How it is done: The THP-1 cells were allowed to differentiate for 4 days at 37° C. in 5% CO2. […] The remaining two plates were incubated at 37° C. for 1 hour followed by fixation and staining for 20 minutes using a solution of 4% PFA+5 μM DRAQ5 diluted in PBS (internalization plates). After fixation, all plates were washed once with PBS. […] The remaining plates were incubated with PBS only. Confocal images were acquired on the Opera Phenix (Perkin Elmer) at 40× magnification. […] The total binding at 4° C. (RFU values of 4° C. unquenched wells), total binding at 37° C.
For all calculations, background fluorescence from unstained wells was subtracted from every well. Total internalized RFU was calculated as follows: Total RFU of 37° C. unquenched samples—Surface RFU at 37° C. Surface RFU is defined as unquenched RFU at 37° C.-quenched RFU at 37° C.)/QE. QE (quenching efficiency) is defined as: 1-(Total RFU of 4° C. quenched sample/Total RFU of 4° C. unquenched sample). The % Internalization was determined from the following formula: (Total internalized RFU at 37° C./Total RFU at 37° C.)*100.

In assay [2] the test system is S. aureus MRSA strain NRS384. As to the kind of experiment: S. aureus IV disseminated infection mouse model (humanized MSR1 mice), kidney burden. The conditions noted are these: with vancomycin; for # of mice with S. aureus below the limit of detection: limit of detection = 250 cfu. Format: in vivo, Staphylococcus aureus. As to the method:
To test the efficacy of an anti-MSR1 Ab-antibiotic ncADC according to the disclosure in vivo, an intravenous disseminated infection model was utilized. S. aureus MRSA strain NRS384 was grown overnight in trypic soy broth (TSB) and sub-cultured to mid-logarithmic phase. Bacteria were then washed twice with PBS and resuspended in PBS at a concentration of 1.2×10^8 cfu/mL. […] From one to three days post infection, mice were treated with 110 mg/kg vancomycin subcutaneously twice daily wherein indicated. […] Mice were monitored for weight loss and body conditioning score throughout the infection. At four days post infection, mice were euthanized and the S. aureus kidney burden was quantified by tissue homogenization followed by enumeration of colony forming units through serial dilution in PBS and plating onto trypicase soy agar plates.

Assay [3] deals with T2, human MSR1 extracellular domain (His9-hMSR1) (Homo sapiens, UniProt P21757).
T2 construct: human MSR1 extracellular domain expressed with a N-terminal nonahistidine tag; purchased R&D Systems 2708-MS
T2 sequence (P21757 77-451 limits assumed): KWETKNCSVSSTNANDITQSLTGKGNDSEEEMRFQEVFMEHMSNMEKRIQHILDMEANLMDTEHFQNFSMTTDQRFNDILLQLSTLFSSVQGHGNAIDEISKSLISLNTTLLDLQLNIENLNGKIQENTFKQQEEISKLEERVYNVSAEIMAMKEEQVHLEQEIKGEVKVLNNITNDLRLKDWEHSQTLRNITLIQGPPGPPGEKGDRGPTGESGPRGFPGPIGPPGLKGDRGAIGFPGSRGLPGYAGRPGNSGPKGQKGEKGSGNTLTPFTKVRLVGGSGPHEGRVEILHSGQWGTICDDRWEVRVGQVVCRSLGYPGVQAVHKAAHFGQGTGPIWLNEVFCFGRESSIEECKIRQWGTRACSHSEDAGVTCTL
The experiment in a line: Surface plasmon resonance (Biacore 4000) binding kinetics, antibody-capture format, 25° C. and 37° C. Particulars: analyte His9-hMSR1. As to the method:
Binding affinities and kinetic constants of human anti-MSR1 antibodies for different MSR1 reagents were determined by real-time surface plasmon resonance (Biacore 4000). All binding studies were performed in 10 mM HEPES, 150 mM NaCl, 3 mM EDTA, and 0.05% v/v Surfactant Tween-20, pH 7.4 (HBS-ET) running buffer at 25° C. and 37° C.
The association rate (ka) and dissociation rate (kd) were determined by fitting the real-time binding sensorgrams to a 1:1 binding model with mass transport limitation using Scrubber 2.0 c curve-fitting software. Binding dissociation equilibrium constant (KD) and dissociative half-life (t½) were calculated from the kinetic rates as: […]

Assay [4] relates to MSR1 negative B16F10.9 cells. The experiment in a line: Flow cytometry cell surface binding, MSR1 negative cells. Details: species or system mouse. How it is done:
Relative cell surface binding of the anti-MSR1 antibodies to mouse MSR1 expressing cells was determined by flow cytometry using MSR1 positive RAW264.7 cells (ATCC, Catalog #TIB-71) and MSR1 negative B16F10.9 cells (Lin et al. 1998. PNAS 95:8829-8834). For the assay, cells were plated in PBS without calcium and magnesium (VWR Cat #45000-446) and 2% FBS (Saradigm Cat #1500-500) (Staining Buffer) in 96 well V-bottom plates (Axygen Scientific, Cat #P-96-450-V-C-S). To block binding to Fc receptors, RAW264.7 cells were incubated for 30 minutes at 4° C. with 500 μg/mL mouse IgG (Jackson ImmunoResearch, Cat #015-000-003) diluted in staining buffer, while B16F10.9 cells remained in staining buffer. Following Fc receptor blocking, 10 μg/mL of anti-MSR1 antibodies or an isotype control antibody were added to the cells and were subsequently incubated for 30 minutes on ice. For a positive control, a commercial anti-mouse MSR1 (Sino Biological, Cat #50129-R004) antibody was used, while a rabbit IgG antibody (Thermo Scientific, Cat #26102) was used as a negative control. […] Cells were subsequently washed and fixed using a 50% solution of Cytofix (BD Biosciences, Cat #554655) diluted in PBS. […] The signal to noise (S/N) was determined by calculating the ratio of the anti-MSR1 antibodies or the control antibodies MFI to the unstained sample MFI (Table 16).

The mark [5] stands for this setting: mAb or conjugate dose 0.1 mg/kg.

B1: H1H21234N-N297Q: "An anti-MSR1 antibody H1H21234N containing a N297Q mutation, which eliminates N-linked glycosylation of the Fc at this site" (antibody, V domains shown)
VH: QVQLQESGPGLVKPSETLSLTCTVTGGSISRNYWSWIRQPPGKGLEWIGYIYYSGSIDYNPSLKSRVTISVDTSKNQFSLKLSSMTAADTAVYYCARDRWNWKYGMDVWGQGTTVIVSS
VL: EIVLTQSPGTLSLSPGERATLSCRASQTVRNNYLAWYHQKPGQAPRLLIYGASSRATGIPDRFSGSGSGTDFTLTISRLEPEDFTVYYCHQYGNSPWTFGQGTKMEIKR
In the case of B1, in assay [1] (4° C.), the “Total Binding at 4° C.” value is 1953248. In addition, in assay [1] (37° C.), the “% Internalization” value came out at 13.3%, the “Total Binding at 37° C.” value turned out to be 5451125 and the “Total Internalized RFU” value stood at 722651 RFU. Moreover, in assay [2] (setting [5]), the Average cfu/kidney pair came out at 2.43E+05 cfu/kidney pair and the “# of mice with S. aureus below the limit of detection” value is reported as 0/6. Further, in assay [2] (mAb or conjugate dose 1 mg/kg), the Average cfu/kidney pair is given as 1.55E+05 cfu/kidney pair and the “# of mice with S. aureus below the limit of detection” value is listed as 4/8. This molecule also yielded a ka in assay [3] (37° C., antibody-capture format) of 787000 M⁻¹ s⁻¹. Further, the kd in assay [3] (37° C., antibody-capture format, * = no dissociation observed, kd manually fixed at 1.00E−05) was 1.00E−05* s^−1. Also, the ka in assay [3] (Biacore, 25° C.) came out at 497000 M⁻¹ s⁻¹. In addition, the kd in assay [3] (Biacore, 25° C., * no dissociation observed, kd fixed at 1.00E−05) is 1.00E−05* s^−1. Moreover, the “B16F10.9 MFI” value in assay [4] (10 μg/mL antibody, flow cytometry) was 3499. The “B16F10.9 S/N” value in assay [4] (ratio of antibody MFI to unstained sample MFI) came to 1.
